In the supplement of paper PMC7877785:
± gives the uncertainty stated by the source.

Assay: self-splicing fitness, log relative to wild type (ln ratio); higher = more splicing; Tetrahymena group I intron in knt gene, E. coli kanamycin selection, DiMSum; sequences stand for … in CUCUCU…GGAGGGAAAAGUUAUCAGGCAUGCACCUGGUAGCUAGUCUUUAAACCAAUAGAUUGCAUCGGUUUAAAAGGCAAGACCGUCAAAUUGCGGGAAAGGGGUCAACAGCCGUUCAGUACCAAGUCUCAGGGGAAACUUUGAGAUGGCCUUGCAAAGGGUAUGGUAAUAAGCUGACGGACAUGGUCCUAACCACGCAGCCAAGUCCUAAGUCAACAGAUCUUCUGUUGAUAUGGAUGCAGUUCACAGACUAAAUGUCGGUCGGGGAAGAUGUAUUCUUCUCAUAAGAUAUAGUCGGACCUCUCCUUAAUGGGAGCUAGCGGAUGAAGUGAUGCAACACUGGAGCCGCUGGGAACUAAUUUGUAUGCGAAAGUAUAUUGAUUAGUUUUGGAGUACUCGUGGUCG
Outline: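 DiMSum derived fitness as the error-weighted combination of fold changes across replicates, kanamycin versus no kanamycin, normalised to wild type. E. coli BL21(DE3) held the library, which randomised all eight P1ex-region intron nucleotides within the knt kanamycin-resistance gene on pET-22b(+). Six replicate transformations grew overnight at 37°C or 30°C on LB agar with or without 25 μg/mL kanamycin, also containing 100 μg/mL carbenicillin, 50 μM IPTG and 0.2% rhamnose, and pooled colonies were amplicon-sequenced on an Illumina HiSeq 2500.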

Sequence | self-splicing fitness (ln) (30 °C) | self-splicing fitness (ln) (37 °C)
CGAAAGCAAUAUUACGCAAC | -2.4 ± 0.18 | -2.39 ± 0.35
CGAAAGCAAUAUUACGCAAG | -1.44 ± 0.097 | -0.503 ± 0.12
CGAAAGCAAUAUUACGCAGA | -4.25 ± 0.42 | -0.12 ± 0.17
CGAAAGCAAUAUUACGCAGU | -3.8 ± 0.22 | -2.69 ± 0.17
CGAAAGCAAUAUUACGCCUC |  | -1.53 ± 0.32
CGAAAGCAAUAUUACGCGUG | -1.16 ± 0.068 | 0.12 ± 0.079
CGAAAGCAAUAUUACGCUAU | -4.13 ± 0.36 | -2.4 ± 0.27
CGAAAGCAAUAUUACGCUCC | -1.14 ± 0.18 | -1.11 ± 0.21
CGAAAGCAAUAUUACGGAAU | -3.69 ± 0.29 | -2.15 ± 0.49
CGAAAGCAAUAUUACGGAUA | -2.86 ± 0.18 | -3 ± 0.19
CGAAAGCAAUAUUACGGGGC | -4.34 ± 0.32 | -1.98 ± 0.19
CGAAAGCAAUAUUACGUAGU | -3.2 ± 0.098 | -2.77 ± 0.13
CGAAAGCAAUAUUACGUCAC |  | -2.32 ± 0.32
CGAAAGCAAUAUUACGUCAU | -4.71 ± 0.36 | -0.631 ± 0.14
CGAAAGCAAUAUUACGUCCU | -0.837 ± 0.11 | -0.445 ± 0.13
CGAAAGCAAUAUUACGUCGA | -3.02 ± 0.17 | -1.51 ± 0.14
CGAAAGCAAUAUUACGUCGC | -3.03 ± 0.21 | -2.59 ± 0.23
CGAAAGCAAUAUUACGUGAG | -0.204 ± 0.048 | -0.102 ± 0.071
CGAAAGCAAUAUUACGUUGA | -3.72 ± 0.18 | -2.28 ± 0.16
CGAAAGCAAUAUUACGUUUA | -1.99 ± 0.13 | -1.83 ± 0.14
CGACAGCAAUAUUACGAGUC | -4.97 ± 0.36 | -2.42 ± 0.24
CGACAGCAAUAUUACGAUAA | -3.74 ± 0.28 | -1.27 ± 0.14

Sequence | self-splicing fitness (ln) (30 °C) | self-splicing fitness (ln) (37 °C)
CGACAGCAAUAUUACGCAAA | -3.94 ± 0.31 | -3.08 ± 0.22
CGACAGCAAUAUUACGCAAC | -4.32 ± 0.31 | -2.61 ± 0.27
CGACAGCAAUAUUACGCAUU | -2.93 ± 0.15 | -2.03 ± 0.16
CGACAGCAAUAUUACGCCUA | -2.48 ± 0.19 | -1.01 ± 0.17
CGACAGCAAUAUUACGCUAA | -2.16 ± 0.19 | -1.57 ± 0.18
CGACAGCAAUAUUACGCUAC |  | -1.12 ± 0.28
CGACAGCAAUAUUACGGAAC | -3.4 ± 0.19 | -2.74 ± 0.23
CGACAGCAAUAUUACGGCCA | -1.16 ± 0.15 | -0.534 ± 0.18
CGACAGCAAUAUUACGGGGA | -3.22 ± 0.15 | -2.35 ± 0.11
CGACAGCAAUAUUACGGUUC | -2.59 ± 0.1 | -2.24 ± 0.13
CGACAGCAAUAUUACGUAAU | -3.73 ± 0.16 | -2.34 ± 0.15
CGACAGCAAUAUUACGUAUA | -4.3 ± 0.47 | -1.54 ± 0.27
CGACAGCAAUAUUACGUCAC | -3.14 ± 0.14 | -2.19 ± 0.16
CGACAGCAAUAUUACGUGAG | -0.627 ± 0.052 | -0.333 ± 0.074
CGACAGCAAUAUUACGUGCC | -1.11 ± 0.12 | -0.684 ± 0.14
CGACAGCAAUAUUACGUGUA | -3 ± 0.14 | -1.59 ± 0.1
CGACAGCAAUAUUACGUUAG | -2.51 ± 0.097 | -0.772 ± 0.095
CGACAGCAAUAUUACGUUCU | -0.971 ± 0.05 | -0.0323 ± 0.07
CGACAGCAAUAUUACGUUGG | -2.92 ± 0.1 | -1.54 ± 0.1
CGAGAGCAAUAUUACGAAAC | -2.91 ± 0.36 | -1.97 ± 0.48
CGAGAGCAAUAUUACGAAUG | -2.96 ± 0.2 | -2.03 ± 0.21
